In PMC3103430, “RecA Proteins from Deinococcus geothermalis and Deinococcus murrayi - Cloning, Purification and Biochemical Characterisation” (BMC Molecular Biology, 2011):

How the values were obtained:
purified protein [1] = substrate: Nc1ncnc2c1ncn2[C@@H]1O[C@H](COP(=O)(O)OP(=O)(O)OP(=O)(O)O)[C@@H](O)[C@H]1O; experiment: purified protein; assay type: biochemical, Deinococcus murrayi; conditions: ssDNA-dependent (80-nt oligonucleotide, 12.16 μM nucleotides), 11.56 mM MgCl2, 20 mM Tris-HCl pH 7.5, 37 °C, Hill fit, n 1.1
purified protein [2] = substrate: Nc1ncnc2c1ncn2[C@H]1C[C@H](O)[C@@H](COP(=O)(O)OP(=O)(O)OP(=O)(O)O)O1; experiment: purified protein; assay type: biochemical, Deinococcus murrayi; conditions: ssDNA-dependent (80-nt oligonucleotide, 12.16 μM nucleotides), 11.56 mM MgCl2, 20 mM Tris-HCl pH 7.5, 37 °C, Hill fit, n 1.0

B1: DmuRecA (Deinococcus murrayi) (protein)
chain: MSKDNPKDFGTPSDSKERLKAIETAMTQIEKAFGKGSIMRLGAESKLDVQAVSTGSLSLDLALGVGGIPRGRITEIYGPESGGKTTLALSVIAQAQKAGGTCAFIDAEHALDPVYARSLGVNTDELLVSQPDNGEQRLEIMELLVRSGAIDVVVVDSVAALTPRAEIEGEMGDSLPGLQARLMSQALRKLTAILSKTGTAAIFINQVREKIGVMYGNPETTTGGRALKFYASVRLDVRKIGQPVKMGNDAVGNTVKVKTVKNKVAPPFKEVELTLMYGKGFDQLSDLVTLASDMDIIKKAGSFYSYGEDRLGQGKEKAIAYIAERPELEAEIRERVLSAIKEGRAGDVPGVASVPAVAE
notes: heterogeneous oligomers
Km (purified protein [1]): 310 ± 9 µM
kcat (purified protein [1]): 0.13 ± 0.004 s⁻¹
kcat/Km (purified protein [1]): 430 ± 18 M⁻¹ s⁻¹
Km (purified protein [2]): 280 ± 7 µM
kcat (purified protein [2]): 0.14 ± 0.004 s⁻¹
kcat/Km (purified protein [2]): 500 ± 25 M⁻¹ s⁻¹
